Reference: article PMC10973816

Columns and labels:
[1] = Non-permeabilised mAb-1438 immunolabelling, HEK, untagged; conditions: glycan lost; control: wild type
[2] = Non-permeabilised mAb-1438 immunolabelling, HEK, mGluR6-EGFP; conditions: glycan lost; control: wild type mGluR6-EGFP
[3] = EGFP in TRPM1-positive OPL puncta, electroporated mouse retina; conditions: glycan lost; control: wild type mGluR6-EGFP
[4] = Total EGFP fluorescence, HEK; conditions: glycan lost; control: wild type mGluR6-EGFP
[5] = Permeabilised mAb-1438 immunolabelling, HEK, untagged; conditions: glycan lost; control: wild type

B1: mGluR6 (metabotropic glutamate receptor 6): N445Q (protein)
parent chain: MGRLRVLLLWLAWWLSQAGIAHGAGSVRLAGGLTLGGLFPVHARGAAGRACGTLKKEQGVHRLEAMLYALDRINADPELLPGVRLGARLLDTCSRDTYALEQALSFVQALIRGRGDGEEASVRCPGGVPPLRAAPPERVVAVVGASASSVSIMVANVLRLFAIPQISYASTAPELSDSTRYDFFSRVVPPDSYQAQAMVDIVRALGWNYVSTLASEGNYGESGVEAFVQISREAGGVCIAQSIKIPREPKPGEFHKVIRRLMETPNARGIIIFANEDDIRRVLEATRQANLTGHFLWVGSDSWGSKISPILNLEEEAVGAITILPKRASIDGFDQYFMTRSLENNRRNIWFAEFWEENFNCKLTSSGGQSDDSTRKCTGEERIGQDSTYEQEGKVQFVIDAVYAIAHALHSMHQALCPGHTGLCPAMEPTDGRTLLHYIRAVRFNGSAGTPVMFNENGDAPGRYDIFQYQATNGSASSGGYQAVGQWAEALRLDMEALQWSGDPHEVPPSQCSLPCGPGERKKMVKGVPCCWHCEACDGYRFQVDEFTCEACPGHMRPTPNHTGCRPTPVVRLTWSSPWAALPLLLAVLGIMATTTIIATFMRHNDTPIVRASGRELSYVLLTGIFLIYAITFLMVAEPCAAVCASRRLLLGLGTTLSYSALLTKTNRIYRIFEQGKRSVTPPPFISPTSQLVITFGLTSLQVVGVIAWLGAQPPHSVIDYEEQRTVDPEQARGVLKCDMSDLSLIGCLGYSLLLMVTCTVYAIKARGVPETFNEAKPIGFTMYTTCIIWLAFVPIFFGTAQSAEKIYIQTTTLTVSLSLSASVSLGMLYVPKTYVILFHPEQNVQKRKRSLKKTSTMAAPPKSENSEDAK
localisation_or_trafficking [1]: decreases | localisation_or_trafficking [2]: decreases | localisation_or_trafficking [3]: no change

B2: mGluR6 (metabotropic glutamate receptor 6): 4Q (protein)
parent chain: B1 parent chain
expression_or_secretion [4]: decreases | expression_or_secretion [5]: decreases | localisation_or_trafficking [1]: abolishes | localisation_or_trafficking [3]: abolishes

B3: mGluR6 (metabotropic glutamate receptor 6): N561Q (protein)
parent chain: B1 parent chain
expression_or_secretion [4]: decreases | localisation_or_trafficking [1]: decreases | localisation_or_trafficking [2]: decreases | localisation_or_trafficking [3]: no change
